# Experimental data as given in patent US20120316071A1 (published 2012).
# Substitutions are numbered along the chain they refer to. Names and notes keep the numbering of the source.
# T1: rHuman Erythropoietin R/Fc Chimera, CF (R&D Systems Cat#963-ER) (human, UniProt P19235 25-250)
# T1 construct: Bought recombinant protein; also called EPO R; EPO R/Fc; Fc part of the bought chimera not given
# T1 sequence (looked up): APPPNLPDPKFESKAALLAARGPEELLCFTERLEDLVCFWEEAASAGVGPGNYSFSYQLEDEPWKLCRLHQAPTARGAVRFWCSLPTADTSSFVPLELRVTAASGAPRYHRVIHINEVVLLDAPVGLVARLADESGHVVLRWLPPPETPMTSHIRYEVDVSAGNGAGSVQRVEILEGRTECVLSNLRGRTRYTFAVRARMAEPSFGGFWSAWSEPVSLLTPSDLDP
# T2: rHuman Erythropoietin R/Fc Chimera, CF (human, UniProt P19235 25-250)
# T2 construct: Bought from R&D Systems; also called EPO R; EPO R/Fc; Fc part of the bought chimera not given
# T2 sequence (looked up): T1 sequence (looked up)
# B1: Fab VH1-46_IGHD6-6*01_IGHJ1*01 S102A/S103P/S104F/H111F (APFF) & L6_IGKJ1*01 S31K (Fab, V domains shown)
# VH: QVQLVQSGAEVKKPGASVKVSCKASGYTFTSYYMHWVRQAPGQGLEWMGIINPSGGSTSYAQKFQGRVTMTRDTSTSTVYMELSSLRSEDTAVYYCAREEYAPFSAEYFQFWGQGTLVTVSS
# VL: EIVLTQSPATLSLSPGERATLSCRASQSVSKYLAWYQQKPGQAPRLLIYDASNRATGIPARFSGSGSGTDFTLTISSLEPEDFAVYYCQQRSNWPPWTFGQGTKVEIKR
# notes: Fab made in E. coli: VH cloned into Plasmid A (CH1, His6 and Flag tags), kappa VL into Plasmid C (kappa CL); also called APFF / S31K
# B2: Fab VH1-46_IGHD6-6*01_IGHJ1*01 S102A/S103P/S104F/H111F (APFF) & L6_IGKJ1*01 S31R (Fab, V domains shown)
# VH: B1 VH
# VL: B1 VL with K31R
# notes: Tested as an E. coli Fab; The heavy chain carries CH1 with His6 and Flag tags from plasmid A, the light chain a kappa CL from plasmid C; also called APFF / S31R; H:APFF & L6_IGKJ1*01 S31R
# B3: Fab VH1-46_IGHD6-6*01_IGHJ1*01 S102A/S103P/S104F/H111F (APFF) & L6_IGKJ1*01 S31N (Fab, V domains shown)
# VH: B1 VH
# VL: B1 VL with K31N
# notes: Fab made in E. coli: VH cloned into Plasmid A (CH1, His6 and Flag tags), kappa VL into Plasmid C (kappa CL); also called APFF / S31N
# B4: Fab VH1-46_IGHD6-6*01_IGHJ1*01 S102A/S103P/S104F/H111F (APFF) & L6_IGKJ1*01 S31T (Fab, V domains shown)
# VH: B1 VH
# VL: B1 VL with K31T
# notes: Fab made in E. coli: VH cloned into Plasmid A (CH1, His6 and Flag tags), kappa VL into Plasmid C (kappa CL); also called APFF / S31T
# Columns and labels:
# [1] = biological target: T1, rHuman Erythropoietin R/Fc Chimera, CF …; assay: ECL multispot (MSD) assay, antigen spotted on plate; blank spot of this row 511
# [2] = biological target: T3, Recombinant Human DLL4 (R&D Systems Cat#1506-D4/CF) (human, UniProt Q9NR61 27-524); assay: as above
# T3 construct: Bought recombinant protein; also called delta-like protein 4; rHuman DLL4
# [3] = biological target: T4, rHuman HGF R/c-MET/Fc Chimera, CF (R&D Systems Cat#358-MT/CF) (human, UniProt P08581 25-932); assay: as above
# T4 construct: Bought recombinant protein; also called HGF R/Fc; hepatocyte growth factor receptor; Fc part of the bought chimera not given
# T4 sequence (P08581 25-932, change not shown): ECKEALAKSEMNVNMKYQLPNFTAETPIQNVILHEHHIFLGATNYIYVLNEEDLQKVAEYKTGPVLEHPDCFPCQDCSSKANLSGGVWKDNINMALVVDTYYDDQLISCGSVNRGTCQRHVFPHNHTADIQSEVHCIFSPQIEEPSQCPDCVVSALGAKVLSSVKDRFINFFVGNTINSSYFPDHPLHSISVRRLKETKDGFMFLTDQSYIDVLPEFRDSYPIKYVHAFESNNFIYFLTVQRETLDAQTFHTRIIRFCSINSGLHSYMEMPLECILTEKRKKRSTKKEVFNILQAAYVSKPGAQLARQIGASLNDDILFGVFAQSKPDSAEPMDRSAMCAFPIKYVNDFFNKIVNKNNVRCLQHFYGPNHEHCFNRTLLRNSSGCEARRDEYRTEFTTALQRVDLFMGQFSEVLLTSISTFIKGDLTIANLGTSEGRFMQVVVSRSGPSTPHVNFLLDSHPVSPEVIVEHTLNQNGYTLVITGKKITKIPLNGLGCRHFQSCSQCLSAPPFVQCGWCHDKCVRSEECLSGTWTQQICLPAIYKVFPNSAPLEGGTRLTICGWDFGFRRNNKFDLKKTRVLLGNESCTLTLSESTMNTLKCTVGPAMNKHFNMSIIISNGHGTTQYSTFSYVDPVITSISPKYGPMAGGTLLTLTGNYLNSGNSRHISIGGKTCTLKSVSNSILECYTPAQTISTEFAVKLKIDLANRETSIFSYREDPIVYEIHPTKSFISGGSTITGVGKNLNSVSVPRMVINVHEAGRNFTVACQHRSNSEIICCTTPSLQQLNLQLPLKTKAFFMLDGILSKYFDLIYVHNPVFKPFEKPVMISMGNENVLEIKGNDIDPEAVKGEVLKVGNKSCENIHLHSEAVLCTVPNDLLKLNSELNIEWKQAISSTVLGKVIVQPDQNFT
# [4] = biological target: T5, rHuman ErbB2/Fc Chimera, CF (R&D Systems Cat#1129-ER) (human, UniProt P04626 23-652); assay: as above
# T5 construct: Bought recombinant protein; also called human epidermal growth factor 2 receptor; Fc part of the bought chimera not given
# [5] = biological target: T6, rHuman EGF R/Fc Chimera, CF (R&D Systems Cat#344-ER) (human, UniProt P00533 25-645); assay: as above
# T6 construct: Bought recombinant protein; also called epidermal growth factor receptor; Fc part of the bought chimera not given
# [6] = biological target: T7, rHuman Notch-1/Fc Chimera, CF (R&D Systems Cat#3647-TK) (human, UniProt P46531 19-526); assay: as above
# T7 construct: Bought recombinant protein; Fc part of the bought chimera not given
# [7] = biological target: T8, rHuman CD44/Fc Chimera, CF (R&D Systems Cat#3660-CD) (human, UniProt P16070 21-220); assay: as above
# T8 construct: Bought recombinant protein; Fc part of the bought chimera not given
# [8] = biological target: T9, rHuman P-Cadherin/Fc Chimera, CF (R&D Systems Cat#861-PC) (human, UniProt P22223 108-654); assay: as above
# T9 construct: Bought recombinant protein; Fc part of the bought chimera not given
# [9] = biological target: T10, rHuman IGF-1 sR, (IGF-1 sR), CF (R&D Systems Cat#391-GR) (human, UniProt P08069 31-932); assay: as above
# T10 construct: Bought recombinant soluble receptor; also called insulin-like growth factor-1 soluble receptor
# [10] = biological target: T11, rHuman EGF R/Fc Chimera, CF (human, UniProt P00533 25-645); assay: ECL multispot (MSD) assay, antigen spotted on the plate, Fab in solution; blank spot of the same well 298
# T11 construct: Bought from R&D Systems; also called epidermal growth factor receptor; Fc part of the bought chimera not given
# [11] = biological target: T2, rHuman Erythropoietin R/Fc Chimera, CF; assay: as above
# [12] = biological target: T12, rHuman P-Cadherin/Fc Chimera, CF (human, UniProt P22223 108-654); assay: as above
# T12 construct: Bought from R&D Systems; Fc part of the bought chimera not given
# [13] = biological target: T13, rHuman IGF-1 sR, (IGF-1 sR), CF (human, UniProt P08069 31-932); assay: as above
# T13 construct: Bought from R&D Systems as a soluble receptor; also called insulin-like growth factor-1 soluble receptor
# [14] = biological target: T14, rHuman HGF R/c-MET/Fc Chimera, CF (human, UniProt P08581 25-932); assay: as above
# T14 construct: Bought from R&D Systems; also called HGF R/Fc; hepatocyte growth factor receptor; Fc part of the bought chimera not given
# T14 sequence (P08581 25-932, change not shown): as above
# [15] = biological target: T15, rHuman Notch-1/Fc Chimera, CF (human, UniProt P46531 19-526); assay: as above
# T15 construct: Bought from R&D Systems; Fc part of the bought chimera not given
# Recombinant Human DLL4 = biological target: T16, Recombinant Human DLL4 (human, UniProt Q9NR61 27-524); assay: as above
# T16 construct: Bought from R&D Systems; also called delta-like protein 4; rHuman DLL4
# [16] = biological target: T17, rHuman ErbB2/Fc Chimera, CF (human, UniProt P04626 23-652); assay: as above
# T17 construct: Bought from R&D Systems; also called human epidermal growth factor 2 receptor; Fc part of the bought chimera not given
# [17] = biological target: T18, rHuman CD44/Fc Chimera, CF (human, UniProt P16070 21-220); assay: as above
# T18 construct: Bought from R&D Systems; Fc part of the bought chimera not given
# [18] = biological target: T1, rHuman Erythropoietin R/Fc Chimera, CF …; assay: ECL multispot (MSD) assay, antigen spotted on plate; blank spot of this row 294
# [19] = biological target: T3, Recombinant Human DLL4 (R&D Systems …); assay: as above
# [20] = biological target: T4, rHuman HGF R/c-MET/Fc Chimera, CF (R&D …); assay: as above
# [21] = biological target: T5, rHuman ErbB2/Fc Chimera, CF (R&D …); assay: as above
# [22] = biological target: T6, rHuman EGF R/Fc Chimera, CF (R&D …); assay: as above
# [23] = biological target: T7, rHuman Notch-1/Fc Chimera, CF (R&D …); assay: as above
# [24] = biological target: T8, rHuman CD44/Fc Chimera, CF (R&D Systems …); assay: as above
# [25] = biological target: T9, rHuman P-Cadherin/Fc Chimera, CF (R&D …); assay: as above
# [26] = biological target: T10, rHuman IGF-1 sR, (IGF-1 sR), CF (R&D …); assay: as above
# [27] = biological target: T1, rHuman Erythropoietin R/Fc Chimera, CF …; assay: ECL multispot (MSD) assay, antigen spotted on plate; blank spot of this row 332
# [28] = biological target: T3, Recombinant Human DLL4 (R&D Systems …); assay: as above
# [29] = biological target: T4, rHuman HGF R/c-MET/Fc Chimera, CF (R&D …); assay: as above
# [30] = biological target: T5, rHuman ErbB2/Fc Chimera, CF (R&D …); assay: as above
# [31] = biological target: T6, rHuman EGF R/Fc Chimera, CF (R&D …); assay: as above
# [32] = biological target: T7, rHuman Notch-1/Fc Chimera, CF (R&D …); assay: as above
# [33] = biological target: T8, rHuman CD44/Fc Chimera, CF (R&D Systems …); assay: as above
# [34] = biological target: T9, rHuman P-Cadherin/Fc Chimera, CF (R&D …); assay: as above
# [35] = biological target: T10, rHuman IGF-1 sR, (IGF-1 sR), CF (R&D …); assay: as above
binder,measurement,setting,value
B1,ECL signal,[1],522
same,ECL signal,[2],179000
same,ECL signal,[3],221
same,ECL signal,[4],262
same,ECL signal,[5],355
same,ECL signal,[6],334
same,ECL signal,[7],370
same,ECL signal,[8],471
same,ECL signal,[9],505
B2,ECL signal,[10],331
same,ECL signal,[11],465
same,ECL signal,[12],270
same,ECL signal,[13],374
same,ECL signal,[14],261
same,ECL signal,[15],358
same,ECL signal,Recombinant Human DLL4,166000
same,ECL signal,[16],313
same,ECL signal,[17],423
B3,ECL signal,[18],363
same,ECL signal,[19],178000
same,ECL signal,[20],300
same,ECL signal,[21],197
same,ECL signal,[22],246
same,ECL signal,[23],267
same,ECL signal,[24],384
same,ECL signal,[25],342
same,ECL signal,[26],379
B4,ECL signal,[27],423
same,ECL signal,[28],191000
same,ECL signal,[29],432
same,ECL signal,[30],285
same,ECL signal,[31],351
same,ECL signal,[32],261
same,ECL signal,[33],384
same,ECL signal,[34],332
same,ECL signal,[35],303
